Experimental data taken from patent US9708375 (Amgen, dated 2017).

T1: biotin labeled human recombinant Sclerostin (human, UniProt Q9BQB4 24-213)
T1 construct: also called human Sclerostin; huSOST
T1 sequence (looked up): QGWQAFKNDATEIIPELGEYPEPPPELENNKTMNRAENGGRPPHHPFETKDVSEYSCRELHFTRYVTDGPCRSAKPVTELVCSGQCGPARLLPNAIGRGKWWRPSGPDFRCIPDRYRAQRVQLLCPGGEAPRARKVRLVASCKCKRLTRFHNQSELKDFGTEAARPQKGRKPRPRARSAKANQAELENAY


Target: T1, biotin labeled human recombinant …
Assay: AlphaScreen Sclerostin/LRP-6 inhibition

Binder | binding result
P7080 (bispecific antibody, human IgG2, lambda, also called P7009; Ab-Avimer-7 (P7080A)) light: YVLTQPPSVSVAPGQTARITCGGNNIGSKSVHWYQQKPGQAPVLVVYDDSDRPSEIPERFSGSNSGNTATLTISRVEAGDEADYYCQVWDSSSDHVVFGGGTRLTVLGQPKAAPSVTLFPPSSEELQANKATLVCLISDFYPGAVTVAWKADSSPVKAGVETTTPSKQSNNKYAASSYLSLTPEQWKSHRSYSCQVTHEGSTVEKTVAPTECSSSGGSCPAYTEFLCKDSDRCFPSEWRCDGEMDCVDGSDELHCAYHTCAPNQFRCNSYDKCVPAHWVCDGVLDCLDSSDETNCSAPASEPPGSLSLQ heavy: QVQLVESGGGVVQPGRSLRLSCAASGFTFSRYDMHWVRQAPGKGLEWVAIIFYDGSNKYYADPVKGRFTISRDNSKNTLYLQMNSLRAEDTAVYYCATLAAAFDYWGQGTLVTVSSASTKGPSVFPLAPCSRSTSESTAALGCLVKDYFPEPVTVSWNSGALTSGVHTFPAVLQSSGLYSLSSVVTVPSSNFGTQTYTCNVDHKPSNTKVDKTVERKCCVECPPCPAPPVAGPSVFLFPPKPKDTLMISRTPEVTCVVVDVSHEDPEVQFNWYVDGVEVHNAKTKPREEQFNSTFRVVSVLTVVHQDWLNGKEYKCKVSNKGLPAPIEKTISKTKGQPREPQVYTLPPSREEMTKNQVSLTCLVKGFYPSDIAVEWESNGQPENNYKTTPPMLDSDGSFFLYSKLTVDKSRWQQGNVFSCSVMHEALHNHYTQKSLSLSPGK | binds
P7652 (bispecific antibody, human IgG2, lambda, also called C140162) light: YVLTQPPSVSVAPGQTARITCGGNNIGSKSVHWYQQKPGQAPVLVVYDDSDRPSEIPERFSGSNSGNTATLTISRVEAGDEADYYCQVWDSSSDHVVFGGGTRLTVLGQPKAAPSVTLFPPSSEELQANKATLVCLISDFYPGAVTVAWKADSSPVKAGVETTTPSKQSNNKYAASSYLSLTPEQWKSHRSYSCQVTHEGSTVEKTVAPTECSSSGGSCPAYTEFLCADSDRCFPSEWRCDGEMDCVDGSDELHCAYHTCAPNQFRCNSYDKCVPAHWVCDGVLDCLDSSDETNCSAPASEPPGSLSLQ heavy: QVQLVESGGGVVQPGRSLRLSCAASGFTFSRYDMHWVRQAPGKGLEWVAIIFYDGSNKYYADPVKGRFTISRDNSKNTLYLQMNSLRAEDTAVYYCATLAAAFDYWGQGTLVTVSSASTKGPSVFPLAPCSRSTSESTAALGCLVKDYFPEPVTVSWNSGALTSGVHTFPAVLQSSGLYSLSSVVTVPSSNFGTQTYTCNVDHKPSNTKVDKTVERKCCVECPPCPAPPVAGPSVFLFPPKPKDTLMISRTPEVTCVVVDVSHEDPEVQFNWYVDGVEVHNAKTKPREEQFNSTFRVVSVLTVVHQDWLNGKEYKCKVSNKGLPAPIEKTISKTKGQPREPQVYTLPPSREEMTKNQVSLTCLVKGFYPSDIAVEWESNGQPENNYKTTPPMLDSDGSFFLYSKLTVDKSRWQQGNVFSCSVMHEALHNHYTQKSLSLSPGK | binds
P7068 (bispecific antibody, human IgG2, lambda, also called P7011; Ab-Avimer-1 (P7068A)) heavy: SGGSCPAYTEFLCKDSDRCFPSEWRCDGEMDCVDGSDELHCAYHTCAPNQFRCNSYDKCVPAHWVCDGVLDCLDSSDETNCSAPASEPPGSLSQVQLVESGGGVVQPGRSLRLSCAASGFTFSRYDMHWVRQAPGKGLEWVAIIFYDGSNKYYADPVKGRFTISRDNSKNTLYLQMNSLRAEDTAVYYCATLAAAFDYWGQGTLVTVSSASTKGPSVFPLAPCSRSTSESTAALGCLVKDYFPEPVTVSWNSGALTSGVHTFPAVLQSSGLYSLSSVVTVPSSNFGTQTYTCNVDHKPSNTKVDKTVERKCCVECPPCPAPPVAGPSVFLFPPKPKDTLMISRTPEVTCVVVDVSHEDPEVQFNWYVDGVEVHNAKTKPREEQFNSTFRVVSVLTVVHQDWLNGKEYKCKVSNKGLPAPIEKTISKTKGQPREPQVYTLPPSREEMTKNQVSLTCLVKGFYPSDIAVEWESNGQPENNYKTTPPMLDSDGSFFLYSKLTVDKSRWQQGNVFSCSVMHEALHNHYTQKSLSLSPGK light: YVLTQPPSVSVAPGQTARITCGGNNIGSKSVHWYQQKPGQAPVLVVYDDSDRPSEIPERFSGSNSGNTATLTISRVEAGDEADYYCQVWDSSSDHVVFGGGTRLTVLGQPKAAPSVTLFPPSSEELQANKATLVCLISDFYPGAVTVAWKADSSPVKAGVETTTPSKQSNNKYAASSYLSLTPEQWKSHRSYSCQVTHEGSTVEKTVAPTECS | binds
P7079 (bispecific antibody, human IgG2, lambda, also called P6887; Ab-Avimer-6 (P7079A)) heavy: QVQLVESGGGVVQPGRSLRLSCAASGFTFSRYDMHWVRQAPGKGLEWVAIIFYDGSNKYYADPVKGRFTISRDNSKNTLYLQMNSLRAEDTAVYYCATLAAAFDYWGQGTLVTVSSASTKGPSVFPLAPCSRSTSESTAALGCLVKDYFPEPVTVSWNSGALTSGVHTFPAVLQSSGLYSLSSVVTVPSSNFGTQTYTCNVDHKPSNTKVDKTVERKCCVECPPCPAPPVAGPSVFLFPPKPKDTLMISRTPEVTCVVVDVSHEDPEVQFNWYVDGVEVHNAKTKPREEQFNSTFRVVSVLTVVHQDWLNGKEYKCKVSNKGLPAPIEKTISKTKGQPREPQVYTLPPSREEMTKNQVSLTCLVKGFYPSDIAVEWESNGQPENNYKTTPPMLDSDGSFFLYSKLTVDKSRWQQGNVFSCSVMHEALHNHYTQKSLSLSPGKSSGGSCAPNQFRCNSYDKCVPAHWVCDGVLDCLDSSDETNCSAPASEPPGSLCPAYTEFLCKDSDRCFPSEWRCDGEMDCVDGSDELHCAYHTSLQ light: YVLTQPPSVSVAPGQTARITCGGNNIGSKSVHWYQQKPGQAPVLVVYDDSDRPSEIPERFSGSNSGNTATLTISRVEAGDEADYYCQVWDSSSDHVVFGGGTRLTVLGQPKAAPSVTLFPPSSEELQANKATLVCLISDFYPGAVTVAWKADSSPVKAGVETTTPSKQSNNKYAASSYLSLTPEQWKSHRSYSCQVTHEGSTVEKTVAPTECS | binds
P7651 (bispecific antibody, human IgG2, lambda, also called C140161) heavy: QVQLVESGGGVVQPGRSLRLSCAASGFTFSRYDMHWVRQAPGKGLEWVAIIFYDGSNKYYADPVKGRFTISRDNSKNTLYLQMNSLRAEDTAVYYCATLAAAFDYWGQGTLVTVSSASTKGPSVFPLAPCSRSTSESTAALGCLVKDYFPEPVTVSWNSGALTSGVHTFPAVLQSSGLYSLSSVVTVPSSNFGTQTYTCNVDHKPSNTKVDKTVERKCCVECPPCPAPPVAGPSVFLFPPKPKDTLMISRTPEVTCVVVDVSHEDPEVQFNWYVDGVEVHNAKTKPREEQFNSTFRVVSVLTVVHQDWLNGKEYKCKVSNKGLPAPIEKTISKTKGQPREPQVYTLPPSREEMTKNQVSLTCLVKGFYPSDIAVEWESNGQPENNYKTTPPMLDSDGSFFLYSKLTVDKSRWQQGNVFSCSVMHEALHNHYTQKSLSLSPGKSSGGSCAPNQFRCNSYDKCVPAHWVCDGVLDCLDSSDETNCSAPASEPPGSLCPAYTEFLCADSDRCFPSEWRCDGEMDCVDGSDELHCAYHTSLQ light: YVLTQPPSVSVAPGQTARITCGGNNIGSKSVHWYQQKPGQAPVLVVYDDSDRPSEIPERFSGSNSGNTATLTISRVEAGDEADYYCQVWDSSSDHVVFGGGTRLTVLGQPKAAPSVTLFPPSSEELQANKATLVCLISDFYPGAVTVAWKADSSPVKAGVETTTPSKQSNNKYAASSYLSLTPEQWKSHRSYSCQVTHEGSTVEKTVAPTECS | binds
P7654 (bispecific antibody, human IgG2, lambda, also called C140164) heavy: QVQLVESGGGVVQPGRSLRLSCAASGFTFSRYDMHWVRQAPGKGLEWVAIIFYDGSNKYYADPVKGRFTISRDNSKNTLYLQMNSLRAEDTAVYYCATLAAAFDYWGQGTLVTVSSASTKGPSVFPLAPCSRSTSESTAALGCLVKDYFPEPVTVSWNSGALTSGVHTFPAVLQSSGLYSLSSVVTVPSSNFGTQTYTCNVDHKPSNTKVDKTVERKCCVECPPCPAPPVAGPSVFLFPPKPKDTLMISRTPEVTCVVVDVSHEDPEVQFNWYVDGVEVHNAKTKPREEQFNSTFRVVSVLTVVHQDWLNGKEYKCKVSNKGLPAPIEKTISKTKGQPREPQVYTLPPSREEMTKNQVSLTCLVKGFYPSDIAVEWESNGQPENNYKTTPPMLDSDGSFFLYSKLTVDKSRWQQGNVFSCSVMHEALHNHYTQKSLSLSPGKSSGGSCAPNQFACNSYDKCVPAHWVCDGVLDCLDSSDETNCSAPASEPPGSLCPAYTEFLCADSDACFPSEWACDGEMDCVDGSDELHCAYHTSLQ light: YVLTQPPSVSVAPGQTARITCGGNNIGSKSVHWYQQKPGQAPVLVVYDDSDRPSEIPERFSGSNSGNTATLTISRVEAGDEADYYCQVWDSSSDHVVFGGGTRLTVLGQPKAAPSVTLFPPSSEELQANKATLVCLISDFYPGAVTVAWKADSSPVKAGVETTTPSKQSNNKYAASSYLSLTPEQWKSHRSYSCQVTHEGSTVEKTVAPTECS | binds
P7077 (bispecific antibody, human IgG2, lambda, also called P6888; Ab-Avimer-4 (P7077A)) heavy: QVQLVESGGGVVQPGRSLRLSCAASGFTFSRYDMHWVRQAPGKGLEWVAIIFYDGSNKYYADPVKGRFTISRDNSKNTLYLQMNSLRAEDTAVYYCATLAAAFDYWGQGTLVTVSSASTKGPSVFPLAPCSRSTSESTAALGCLVKDYFPEPVTVSWNSGALTSGVHTFPAVLQSSGLYSLSSVVTVPSSNFGTQTYTCNVDHKPSNTKVDKTVERKCCVECPPCPAPPVAGPSVFLFPPKPKDTLMISRTPEVTCVVVDVSHEDPEVQFNWYVDGVEVHNAKTKPREEQFNSTFRVVSVLTVVHQDWLNGKEYKCKVSNKGLPAPIEKTISKTKGQPREPQVYTLPPSREEMTKNQVSLTCLVKGFYPSDIAVEWESNGQPENNYKTTPPMLDSDGSFFLYSKLTVDKSRWQQGNVFSCSVMHEALHNHYTQKSLSLSPGKSSGGSCGRDHFRCRSYDKCVPAHWLCDGVLDCLDSSDETYCSAPASEPPGSLCPAYTEFLCKDSDRCFPSEWRCDGEMDCVDGSDELHCAYHTSLQ light: YVLTQPPSVSVAPGQTARITCGGNNIGSKSVHWYQQKPGQAPVLVVYDDSDRPSEIPERFSGSNSGNTATLTISRVEAGDEADYYCQVWDSSSDHVVFGGGTRLTVLGQPKAAPSVTLFPPSSEELQANKATLVCLISDFYPGAVTVAWKADSSPVKAGVETTTPSKQSNNKYAASSYLSLTPEQWKSHRSYSCQVTHEGSTVEKTVAPTECS | binds
P7653 (bispecific antibody, human IgG2, lambda, also called C140163) heavy: SGGSCPAYTEFLCADSDACFPSEWACDGEMDCVDGSDELHCAYHTCAPNQFACNSYDACVPAHWVCDGVLDCLDSSDETNCSAPASEPPGSLSQVQLVESGGGVVQPGRSLRLSCAASGFTFSRYDMHWVRQAPGKGLEWVAIIFYDGSNKYYADPVKGRFTISRDNSKNTLYLQMNSLRAEDTAVYYCATLAAAFDYWGQGTLVTVSSASTKGPSVFPLAPCSRSTSESTAALGCLVKDYFPEPVTVSWNSGALTSGVHTFPAVLQSSGLYSLSSVVTVPSSNFGTQTYTCNVDHKPSNTKVDKTVERKCCVECPPCPAPPVAGPSVFLFPPKPKDTLMISRTPEVTCVVVDVSHEDPEVQFNWYVDGVEVHNAKTKPREEQFNSTFRVVSVLTVVHQDWLNGKEYKCKVSNKGLPAPIEKTISKTKGQPREPQVYTLPPSREEMTKNQVSLTCLVKGFYPSDIAVEWESNGQPENNYKTTPPMLDSDGSFFLYSKLTVDKSRWQQGNVFSCSVMHEALHNHYTQKSLSLSPGK light: YVLTQPPSVSVAPGQTARITCGGNNIGSKSVHWYQQKPGQAPVLVVYDDSDRPSEIPERFSGSNSGNTATLTISRVEAGDEADYYCQVWDSSSDHVVFGGGTRLTVLGQPKAAPSVTLFPPSSEELQANKATLVCLISDFYPGAVTVAWKADSSPVKAGVETTTPSKQSNNKYAASSYLSLTPEQWKSHRSYSCQVTHEGSTVEKTVAPTECS | binds
